Consider three molecules from patent US20220227882A1 (TRUSTEES OF TUFTS COLLEGE, published 2022).

Assay [1] concerns the target T1, Recombinant human ADAM8 (rHuADAM8) ectodomain protein (aa 17-497), ACRO Biosystems AD8-H5223 (human, UniProt P78325 17-497).
T1 construct: Bought protein made in HEK293 cells; The protein clips off its own prodomain (aa 17-191); also called rhADAM8; immunogen
T1 sequence: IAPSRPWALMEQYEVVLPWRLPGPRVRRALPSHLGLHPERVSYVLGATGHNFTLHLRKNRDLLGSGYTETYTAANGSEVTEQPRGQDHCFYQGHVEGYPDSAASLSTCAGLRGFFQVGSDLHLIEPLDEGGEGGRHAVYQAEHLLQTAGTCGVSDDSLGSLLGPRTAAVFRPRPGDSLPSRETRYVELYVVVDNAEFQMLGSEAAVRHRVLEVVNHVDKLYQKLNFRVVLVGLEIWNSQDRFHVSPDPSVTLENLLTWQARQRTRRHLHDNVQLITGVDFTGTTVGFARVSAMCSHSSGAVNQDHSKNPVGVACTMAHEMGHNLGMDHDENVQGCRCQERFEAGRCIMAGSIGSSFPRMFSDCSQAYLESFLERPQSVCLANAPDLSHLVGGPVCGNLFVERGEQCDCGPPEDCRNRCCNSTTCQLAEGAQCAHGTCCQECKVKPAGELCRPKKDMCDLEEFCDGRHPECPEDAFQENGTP
Briefly: Biacore SPR, rHuADAM8 as analyte. As to the method: (§1) For Biacore assays, each ADP was used as the ligand in a multiple cycle kinetics method performed on a Biacore™ T200 surface plasmon resonance system (GE Healthcare Life Sciences) machine. ADP proteins were captured using anti-mouse Fc IgG attached to a dextran matrix, and rHuADAM8 (Acro Biosystems, AD8-H5223) added as the analyte at concentrations ranging from 3.75 nM to 200 nM. HBS-EP+ (10 mM HEPES, 0.15 M NaCl, 3 mM EDTA, 0.05% Surfactant P20) running buffer was passed at a flow rate of 30 μl/min and antigen injected at 30 μl/min. The association and dissociation phases were carried out for 180 s and 600 s, respectively. Surface regeneration was performed for 30 s at 30 μl/min of Glycine pH 1.5. Values for association rate constant (kₐ), dissociation rate constant (kd) and equilibrium dissociation constant (KD) were calculated through the Biacore™ T200 Software.
(In general: SPR reads the build-up and loss of mass on a sensor chip optically.)

Assay [2] concerns the target T2, Full-length human ADAM8 on cells (HEK293-ADAM8 stable or transfected cells); also endogenous ADAM8 of breast … (human, UniProt P78325 17-824).
T2 sequence: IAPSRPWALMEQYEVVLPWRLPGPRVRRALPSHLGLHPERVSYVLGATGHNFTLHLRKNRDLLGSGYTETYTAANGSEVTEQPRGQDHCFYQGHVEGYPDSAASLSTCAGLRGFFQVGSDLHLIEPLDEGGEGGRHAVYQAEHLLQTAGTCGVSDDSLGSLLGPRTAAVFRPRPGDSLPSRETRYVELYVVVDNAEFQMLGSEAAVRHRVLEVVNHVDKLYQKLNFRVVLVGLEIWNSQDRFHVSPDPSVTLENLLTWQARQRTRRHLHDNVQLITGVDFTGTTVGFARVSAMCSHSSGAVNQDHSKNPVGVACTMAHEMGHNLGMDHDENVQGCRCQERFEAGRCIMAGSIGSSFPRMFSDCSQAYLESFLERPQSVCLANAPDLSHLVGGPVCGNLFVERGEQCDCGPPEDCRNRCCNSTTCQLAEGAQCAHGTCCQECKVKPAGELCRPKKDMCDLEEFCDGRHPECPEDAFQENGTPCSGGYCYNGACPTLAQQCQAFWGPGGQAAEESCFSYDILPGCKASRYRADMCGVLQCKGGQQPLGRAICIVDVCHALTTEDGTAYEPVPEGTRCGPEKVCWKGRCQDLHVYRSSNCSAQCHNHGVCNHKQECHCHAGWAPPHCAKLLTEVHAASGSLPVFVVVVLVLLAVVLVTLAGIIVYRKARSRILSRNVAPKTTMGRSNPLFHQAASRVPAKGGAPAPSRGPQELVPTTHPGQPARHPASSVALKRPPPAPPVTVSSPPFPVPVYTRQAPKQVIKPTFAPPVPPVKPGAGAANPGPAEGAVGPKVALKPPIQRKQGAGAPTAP
Description: cell-based or functional assay.

For assay [3], the target named is T3, Recombinant human ADAM9 (R&D Systems, 939-AD-020) (human, UniProt Q13443 29-697).
T3 sequence (looked up): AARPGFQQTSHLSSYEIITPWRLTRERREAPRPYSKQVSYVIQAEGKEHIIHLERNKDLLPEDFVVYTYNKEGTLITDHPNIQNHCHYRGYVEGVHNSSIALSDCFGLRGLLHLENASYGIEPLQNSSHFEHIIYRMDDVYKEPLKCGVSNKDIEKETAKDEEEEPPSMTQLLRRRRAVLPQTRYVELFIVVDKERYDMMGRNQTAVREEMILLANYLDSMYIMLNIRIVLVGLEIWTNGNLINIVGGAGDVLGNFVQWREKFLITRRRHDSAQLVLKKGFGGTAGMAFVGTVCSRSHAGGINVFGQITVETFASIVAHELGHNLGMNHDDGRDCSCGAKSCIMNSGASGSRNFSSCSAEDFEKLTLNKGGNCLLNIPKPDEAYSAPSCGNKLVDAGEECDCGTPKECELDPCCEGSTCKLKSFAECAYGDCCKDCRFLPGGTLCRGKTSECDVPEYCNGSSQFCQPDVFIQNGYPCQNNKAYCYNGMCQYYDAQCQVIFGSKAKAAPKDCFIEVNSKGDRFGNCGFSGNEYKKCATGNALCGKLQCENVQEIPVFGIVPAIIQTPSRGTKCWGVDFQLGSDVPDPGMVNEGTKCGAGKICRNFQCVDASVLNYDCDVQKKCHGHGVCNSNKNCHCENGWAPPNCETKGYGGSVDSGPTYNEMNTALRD
Briefly: ELISA, coated recombinant ADAM9.

In assay [4] the target is T2, Full-length human ADAM8 on cells …. Briefly: FACS, HEK293-ADAM8 cells, antibody 1 µg/ml. Background: In flow cytometry, cells or beads pass a laser one at a time.
For assay [5], the target named is T1, Recombinant human ADAM8 (rHuADAM8) …. Description: Biacore SPR, ADP captured by anti-mouse Fc, rHuADAM8 as analyte. As to the method:
as §1

B1: ADP3 (antibody, IgG1, V domains shown)
VH: EVKLEESGGGLVQPGGSMKLSCAASGFTFSDAWMDWVRQSPEKGLEWVAEIRGKVNNLATYYVESVKGRFTISRDDSKSSVYLQMNSLRAEDTGIYYCLGRYDATYAMDYWGQGTSVTVSS
VL: DVVMTQTPLSLPVSLGDQASISCRSSQSLVHSDGNTYLHWYLQKPGQSPKLLIYKLSNRFSGVPDRFSGSGSGTDFTLKISRVEAEDLGVYFCSQSTHVPWTFGGGTKLEIK
Take B1: the Kd in assay [1] was determined as 18.3 nM. In assay [2], the “% inhibition of CD23 cleavage (MP activity), HEK293 cells co-expressing CD23 and ADAM8, antibody 20 µg/ml” value (from here on “% inhibition of CD23 cleavage”) stood at 79.9 % inhibition; the “% inhibition of transendothelial migration of MDA-MB-231 cells through HUVEC, antibody 20 µg/ml” value came to 44.5 % inhibition. Besides, the “OD 450nm” value in assay [3] was 0.15 OD450nm. Also, the MFI in assay [4] worked out at 96.5 MFI. Moreover, in assay [5], the koff was determined as 0.000634 s⁻¹ and the kon worked out at 34700 M⁻¹ s⁻¹.

B2: ADP2 (antibody, V domains shown)
VH: EVKLVESGGGLVQPGGSLSLSCAASGFSFPDYYMSWVRQPPGKALEWLGFIRDSANGYTTEYIASVKGRFTFSRDNSQSILYLQMNALRAEDSATYYCARYSRYYGMDYWGQGTSVTVSS
VL: SIVMTQTPKILLVSAGDRVTITCKASQTVNYDVAWYQQKPGQSPKPVIYFASNRYTGVPDRFTGSGFGTDFTFTISTVQAEDLAVYFCQQDYSAPWTFGGGTKLEIK
notes: also called mADP2; mouse ADP2
With B2, in assay [1], the Kd was found to be 3.34 nM. Also, in assay [2], the “% inhibition of CD23 cleavage” value stood at 62.6 % inhibition; the “% inhibition of transendothelial migration of MDA-MB-231 cells through HUVEC, antibody 20 µg/ml” value amounted to 37.6 % inhibition. Besides, in assay [3], the “OD 450nm” value amounted to 0.07 OD450nm and the binding result is on record as “no binding (tested: 1 µg/ml)”. The molecule further gave an MFI in assay [4] of 156 MFI. Also, in assay [5], the koff worked out at 0.000299 s⁻¹ and the kon came to 89500 M⁻¹ s⁻¹.

B3: ADP13 (antibody, IgG1, V domains shown)
VH: EVQLQQSGPEMVKPGTSVKISCKASGYTFTDYYINWVKQSHGKSLEWIGDISPNIGGATYNPKFKGKAILTVDKSARTAYMELRSLTSEDSAVYCCTRGGSSYPYFYAMDYWGQGTSVTVSS
VL: DIVMSQSPSSLAVSVGEKVTMSCKSSQSLLYSSNQKKYLAWYQQKPGQSPKLLIYWASTRESGVPDRFTGSGSGTDFTLTISSVKAEDLAVYYCQQFYSYPYTFGGGTKLEINR
notes: also called mADP13; mouse ADP13
As to B3, in assay [1], the Kd was 1.3 nM. For the same molecule, in assay [2], the “% inhibition of CD23 cleavage” value worked out at 79.1 % inhibition; the “% inhibition of transendothelial migration of MDA-MB-231 cells through HUVEC, antibody 20 µg/ml” value amounted to 54.5 % inhibition. Besides, in assay [3], the “OD 450nm” value worked out at 0.12 OD450nm and the binding result is recorded as “no binding (tested: 1 µg/ml)”. In assay [4], the MFI amounted to 21.1 MFI. Moreover, in assay [5], the koff came out at 4.6e-05 s⁻¹ and the kon amounted to 35400 M⁻¹ s⁻¹.

The term Kd denotes a measure of binding affinity in units of concentration. As a reminder, the koff is a measure of how fast the partners let go of each other. Broadly, the kon is the rate constant with which the complex forms.
